Test results from paper PMC9015690.

Target: CXCL12 locked dimer (CXCL12-LD) (UniProt P48061)
Experiment: ITC

Sequence of CXCL12 locked dimer (CXCL12-LD) (P48061 22-89 L57C/A86C): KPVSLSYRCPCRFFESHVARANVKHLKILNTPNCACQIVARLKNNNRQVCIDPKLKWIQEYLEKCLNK

KD of the first transition (sequential binding model): 6 nM
stoichiometry N: 1
B1: ACKR1^N-term, sixty-amino acid peptide corresponding to the extracellular N-terminus of ACKR1 (domain or fragment)
chain: MGNALHRAELSPSTENSSQLDFEDVWNSSYGVNDSFPDGDYGANLEAAAPAHSANLLDDS
